Results on two molecules are retold here after US20260209330A1, “S100A7 AS A DIAGNOSTIC MARKER AND THERAPEUTIC TARGET FOR DISORDERS” (Ohio State Innovation Foundation, priority 2022, published 2026).

For data set [1] the following is noted: breast cancer patients; reported; cited from earlier work.
Data set [2] concerns MDA-MB-231 cells. In words: 3D-Spheroid invasion assay (3D-Cultrex spheroid invasion kit). The format is cell-based. As to conditions: nAb clone 28F8-2 300 ng/μl; recombinant human S100A7 100 ng/ml; vs control IgG or PBS; invaded area on 10th day. As to the method:
(§1) MDA-MB-231 cells were treated with hS100A7 neutralizing antibody (clone 28F8-2; 300 ng/μl) or control IgG or PBS in the presence or absence of recombinant human S100A7 (100 ng/ml) and spheroid invasion assay was performed by using 3D-Cultrex spheroid invasion kit. […] FIG. 9B show the bar diagram representing the invaded area of spheroids. The area between red and blue circles represents the invaded area. […] GAPDH was used as a loading control. S100A7 overexpressing MDA-MB-231 cells (1×10^6) were injected into the female NCG mice. After the onset of palpable tumors, mice were either treated with vehicle control (VC), S100A7 nAb ([…], i.p. route; clone 28F8-2; two times a week) alone or in combination with ASB-14780 (50 mg/kg·bt, oral route; three times a week). […] FIGS. 9F, 9G, and 9H show the analysis of tumor volume, tumor weight, and liver metastasis of control IgG, S100A7 nAb, ASB-14780, and combination-treated. *** is p<0.001; **** is p<0.0001. One way ANOVA and t test were used for calculating statistical significance.
(§2) Trans-well migration assay and 3D-Spheroid invasion assay. MDA-MB-231 cells were treated with hS100A7 neutralizing antibody (clone 28F8-2; 300 ng/μl) or control IgG or PBS in the presence or absence of recombinant human S100A7 (100 ng/ml). […] On the 10th day, the invaded area was calculated by using the image-J plugin.

Data set [3] in a line: HFD-induced obesity in wild type female FVB mice. The format is in vivo, mouse. As to conditions: FVB mice on HFD; nAb i.p. two times a week, alone or with reboxetine 20 mg/kg·bt i.p. twice a week; vs control IgG treated group. As to the method:
(§3) FIGS. 10C, 10D, 10E, 10F, and 10G show the analysis of body weight, vWAT mass (gm), tumor volume, tumor weight (gm), and Lung metastasis of VC, S100A7 nAb, Reb and combo-treated animals. *P<0.05, ** P<0.01. One way ANOVA was used for calculating statistical significance. Mouse models, obesity tumor growth analyses and flow cytometry. The NCG and wild-type 6 weeks old female FVB mice (6 weeks old) were obtained from the Charles River. S100A7 overexpressing MDA-MB-231 cells (1×10^6) were injected into the 4th mammary fat pad of NCG mice. While Mvt1 cells (1×10^5) were injected into the mammary fat pad of wild type FVB mice fed with HFD. […] Mvt-1 cells (1×10^5) were also injected into the mammary glands of S100A7 floxed (control) and KO mice. Body weights and tumors were measured weekly, and volume was calculated. In the endpoints, animals were sacrificed, and tumors and other organs were excised. All mice were kept in The OSU's animal facility in compliance with the guidelines and protocols approved by the OSU-IACUC. For flow cytometry, freshly prepared single-cell suspensions of spleen samples harvested from non-tumor bearing S100A7 floxed and KO mice were incubated with an Fc receptor blocker followed by staining with different fluorochrome-conjugated antibodies (Table 1). After staining, cells were evaluated by FACS Fortessa using CellQuest software (BD Biosciences)

A further data set concerns PD-L1. In words: S100A7-induced PD-L1 expression by Western blot. The format is cell-based. As to conditions: MDA-MB-231 cells; nAb clone 28F8-2 300 ng/μl; recombinant human S100A7 100 ng/ml; GAPDH loading control. As to the method:
as §1
Western blotting, adipokine array and Immunohistochemistry (IHC). Cell or tissue lysates were analyzed by Western blotting. Briefly, samples were run on NuPAGE 4-12% gradient precast gels (Invitrogen) and probed with primary antibodies (Table 1), followed by secondary antibodies incubation, and were developed. […]
(A western blot detects proteins with antibodies after separation by electrophoresis.)

Data set [4] deals with MDA-MB-231 cells. The data set can be described thus: Trans-well migration assay. The data set is classed as cell-based. As to conditions: nAb clone 28F8-2 300 ng/μl; recombinant human S100A7 100 ng/ml; overnight, transwell chambers. As to the method:
as §1, §2

The subject of a further data set is Mvt1 cells. In words: Mvt1-generated syngeneic breast tumor model in HFD-induced obese mice. The format is in vivo, mouse. The conditions noted are these: HFD-induced obese FVB mice with Mvt1 tumors; nAb i.p. two times a week, alone or with reboxetine 20 mg/kg·bt i.p. twice a week. As to the method:
as §3

Turning to `CCOc1ccccc1OC(c1ccccc1)C1CNCCO1` (stereo not drawn) [reboxetine], in data set [1], the depressive symptoms entry is recorded as “reduces” and the tolerability result is reported as “well tolerated”.

B1: S100A7 nAb: novel monoclonal S100A7 neutralizing antibody, hybridoma clone 28F8-2; heavy chain SEQ ID NO: 4, light chain SEQ ID NO: 8 (antibody)
heavy: MRVLILLWLFTAFPGILSDVQLQESGPGLVKPSQSLSLTCTVTGYSITSDYAWNWIRQFPGNKLEWMGYISYSGYTSYNPSLKSRISITRDTSKNQFFLQLNSVTTEDTTTYYCTRGGKGPMDYWGQGTSVTVSSAKTTPPSVYPLAPGSAAQTNSMVTLGCLVKGYFPEPVTVTWNSGSLSSGVHTFPAVLQSDLYTLSSSVTVPSSTWPSETVTCNVAHPASSTKVDKKIVPRDCGCKPCICTVPEVSSVFIFPPKPKDVLTITLTPKVTCVVVDISKDDPEVQFSWFVDDVEVHTAQTQPREEQFNSTFRSVSELPIMHQDWLNGKEFKCRVNSAAFPAPIEKTISKTKGRPKAPQVYTIPPPKEQMAKDKVSLTCMITDFFPEDITVEWQWNGQPAENYKNTQPIMDTDGSYFVYSKLNVQKSNWEAGNTFTCSVLHEGLHNHHTEKSLSHSPGK
light: MKSQTQVFVFLLLCVSGAHGSIVMTQTPKFLLVSAGDRVTITCKASQSVSNDVAWYHQKPGQSPKLLIYYASNRYTGVPDRFTGSGYGTDFTFTISTVQAEDLAVYFCQQDYSSPYTFGGGTKLEIKRADAAPTVSIFPPSSEQLTSGGASVVCFLNNFYPKDINVKWKIDGSERQNGVLNSWTDQDSKDSTYSMSSTLTLTKDEYERHNSYTCEATHKTSTSPIVKSFNRNEC
modifications: Description of sequence: Heavy Chain; Description of sequence: Light Chain
As for B1, the “S100A7-mediated invasiveness of spheroid cells (invaded area)” value in the data set with MDA-MB-231 cells [2] was “reduced”. Moreover, in data set [3], the “HFD-induced body weight gain” value is listed as “significantly inhibited” and the “visceral fat accumulation (vWAT mass)” value was “significantly inhibited”. The “S100A7-induced PD-L1 expression” value with PD-L1 is reported as “decreases”. The “S100A7-mediated migration of TNBC cells” value in the data set on MDA-MB-231 cells [4] is reported as “inhibits”. Further, in the data set with Mvt1 cells, the lung metastasis result was “significantly reduced” and the “tumor growth (tumor volume, tumor weight)” value was “significantly reduced”.
